From publication PMC6382870

Key:
[1] = target: MrNVPd double-mutant Y293A/D295A (Macrobrachium rosenbergii nodavirus (MrNV)); assay: SEC; P-domains without the SUMO-tag; column and buffer not stated
[2] = target: PvNVPd (250-368) (Penaeus vannamei nodavirus (PvNV)); assay: as above
[3] = target: PvNV capsid protein (1-368) (Penaeus vannamei nodavirus (PvNV)); assay: cryo-EM structure; T = 1 PvNV-LP particles (~22-24 nm) picked from the same sample, icosahedral symmetry, 3.7 Å
[4] = target: PvNV capsid protein (1-368) (Penaeus vannamei nodavirus (PvNV)); assay: cryo-EM structure; T = 3 PvNV-LP particles (~29-35 nm) picked from the assembled sample, 6 mg/mL, icosahedral symmetry, 3.5 Å
[5] = target: MrNVPd double-mutant K327A/D329A (Macrobrachium rosenbergii nodavirus (MrNV)); assay: SEC; P-domains without the SUMO-tag; column and buffer not stated
[6] = target: MrNVPd (246-371) (Macrobrachium rosenbergii nodavirus (MrNV)); assay: as above

Work on “MrNVPd double-mutant Y293A/D295A (domain or fragment)” yielded a stoichiometry N [1] of 2.

For PvNVPd (250-368) (domain or fragment), the stoichiometry N [2] was 2.

In the case of “PvNV capsid protein (1-368) (natural protein)”, the stoichiometry N [3] is reported as 60 and the stoichiometry N [4] is reported as 180 copies.

“MrNVPd double-mutant K327A/D329A (domain or fragment)” showed a stoichiometry N [5] of 2.

Substance MrNVPd (246-371) (domain or fragment) has a stoichiometry N [6] of 2.
